Assay results published in the supplement of paper PMC12783771.
± gives the standard deviation of the averaged measurements.

B1: library; a variant is named by its letters at X, in order (parent)
chain: MNIQIGELAKRTACPVVTIRFYEQEGLLPPPGRSRGNFRLYGEEHVERLQFIRHCRSLDMPLSXVRTLLSYRKRPDQDCGEVXMLLDEHXRQVESRIGALLELXHXLVELREACSGARPAQSCGILQGLSDCVCDTRGTTAHXSD

Variants of: B1
Test: sfGFP reporter fluorescence (15 h) (µM FITC); higher = higher leak
Details: library round: Round 3b; ligand: none
Protocol: (§1)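 Cell-free biosensing: 1 µL Echo-assembled CFE reactions with linear PbrR variant templates (5 nM) and pPbrR-sfGFP reporter, with 1 µM Pb, 30 µM Zn or no ligand; endpoint sfGFP fluorescence after 15 h at 30 °C calibrated as µM FITC. Round 3b rational combinatorial PbrR mutants; 3 biological replicates.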

Row | Variant | sfGFP reporter fluorescence
1 | KFIKAT | 0.0418 ± 0.0013
2 | KFAKHR | 0.0685 ± 0.0035
3 | KFAKHT | 0.0669 ± 0.0082
4 | DFATAP | 0.0454 ± 0.0046
5 | DFATAT | 0.0428 ± 0.0034
6 | DFATAR | 0.0431 ± 0.00051
7 | DNATAR | 0.0439 ± 0.0034
8 | DNATAT | 0.0419 ± 0.0058
9 | DFAKET | 0.037 ± 0.0032
10 | DFAKER | 0.044 ± 0.0022
11 | KNAKAT | 0.0671 ± 0.0058
12 | KNAKAR | 0.0687 ± 0.0037
13 | KFATHR | 0.0517 ± 0.0024
14 | KFATHP | 0.0523 ± 0.0059
15 | KFATHT | 0.0512 ± 0.0033
16 | KNAVAR | 0.0498 ± 0.001
17 | KNAVAT | 0.045 ± 0.0035
18 | KNAVAP | 0.0482 ± 0.0035
19 | KIAVHR | 0.0703 ± 0.001
20 | KIAVHP | 0.0656 ± 0.0055
21 | KIAVHT | 0.0616 ± 0.0046
22 | DIAVER | 0.0436 ± 0.004
23 | DIAVEP | 0.0409 ± 0.0007

Row | Variant | sfGFP reporter fluorescence
24 | DIAVET | 0.0432 ± 0.0019
25 | DNAVER | 0.0468 ± 0.0035
26 | DNAVET | 0.0438 ± 0.0014
27 | KIATAR | 0.069 ± 0.0014
28 | KIATAT | 0.0691 ± 0.0019
29 | KIATAP | 0.0703 ± 0.0043
30 | KNITER | 0.0631 ± 0.0055
31 | KNITET | 0.0629 ± 0.0071
32 | KIIVEP | 0.0554 ± 0.0036
33 | KIIVET | 0.0535 ± 0.0022
34 | DFAVAT | 0.0442 ± 0.0011
35 | DFAVAR | 0.0466 ± 0.0033
36 | DFAVAP | 0.0435 ± 0.0045
37 | DIITAT | 0.0431 ± 0.0041
38 | DIITAR | 0.0463 ± 0.0055
39 | DIATET | 0.0419 ± 0.0022
40 | DIATER | 0.0429 ± 0.0012
41 | DIATEP | 0.046 ± 0.0012
42 | DNIKHP | 0.043 ± 0.0052
43 | DIAVHT | 0.0457 ± 0.0036
44 | DIAVHR | 0.0454 ± 0.0066
45 | KIIKAT | 0.0413 ± 0.0042

Variants of: B1
Test: sfGFP reporter fluorescence (15 h) (µM FITC); higher = stronger transcriptional activation
Details: library round: Round 3b; ligand: 1 µM Pb
Protocol: as §1

Row | Variant | sfGFP reporter fluorescence
46 | KFIKAT | 0.169 ± 0.015
47 | KFAKHR | 0.843 ± 0.073
48 | KFAKHT | 0.777 ± 0.035
49 | DFATAP | 0.048 ± 0.0038
50 | DFATAT | 0.0475 ± 0.0011
51 | DFATAR | 0.05286 ± 0.00019
52 | DNATAR | 0.0477 ± 0.0023
53 | DNATAT | 0.0459 ± 0.0022
54 | DFAKET | 0.0413 ± 0.00089
55 | DFAKER | 0.0459 ± 0.002
56 | KNAKAT | 0.353 ± 0.02
57 | KNAKAR | 0.394 ± 0.045
58 | KFATHR | 0.705 ± 0.055
59 | KFATHP | 0.476 ± 0.041
60 | KFATHT | 0.558 ± 0.011
61 | KNAVAR | 0.195 ± 0.018
62 | KNAVAT | 0.155 ± 0.0086
63 | KNAVAP | 0.142 ± 0.0073
64 | KIAVHR | 1.42 ± 0.17
65 | KIAVHP | 1.12 ± 0.13
66 | KIAVHT | 0.924 ± 0.066
67 | DIAVER | 0.0866 ± 0.0039
68 | DIAVEP | 0.0827 ± 0.0059

Row | Variant | sfGFP reporter fluorescence
69 | DIAVET | 0.07 ± 0.0044
70 | DNAVER | 0.0511 ± 0.0015
71 | DNAVET | 0.0536 ± 0.0031
72 | KIATAR | 1.49 ± 0.15
73 | KIATAT | 1.29 ± 0.062
74 | KIATAP | 1.26 ± 0.096
75 | KNITER | 0.311 ± 0.029
76 | KNITET | 0.318 ± 0.015
77 | KIIVEP | 0.372 ± 0.031
78 | KIIVET | 0.346 ± 0.015
79 | DFAVAT | 0.0558 ± 0.0015
80 | DFAVAR | 0.0575 ± 0.0018
81 | DFAVAP | 0.0535 ± 0.0046
82 | DIITAT | 0.0634 ± 0.005
83 | DIITAR | 0.0691 ± 0.0046
84 | DIATET | 0.0628 ± 0.00089
85 | DIATER | 0.0627 ± 0.0026
86 | DIATEP | 0.0616 ± 0.0042
87 | DNIKHP | 0.0535 ± 0.0032
88 | DIAVHT | 0.102 ± 0.0083
89 | DIAVHR | 0.104 ± 0.0012
90 | KIIKAT | 0.17 ± 0.027

Same assay, conditions: library round: Round 3b; ligand: 30 µM Zn

Row | Variant | sfGFP reporter fluorescence
91 | KFIKAT | 0.0513 ± 0.0024
92 | KFAKHR | 0.33 ± 0.014
93 | KFAKHT | 0.299 ± 0.047
94 | DFATAP | 0.0454 ± 0.0051
95 | DFATAT | 0.0455 ± 0.0051
96 | DFATAR | 0.0448 ± 0.0015
97 | DNATAR | 0.0627 ± 0.0048
98 | DNATAT | 0.059 ± 0.0073
99 | DFAKET | 0.0436 ± 0.0024
100 | DFAKER | 0.0423 ± 0.00089
101 | KNAKAT | 0.795 ± 0.18
102 | KNAKAR | 0.754 ± 0.11
103 | KFATHR | 0.171 ± 0.012
104 | KFATHP | 0.112 ± 0.011
105 | KFATHT | 0.137 ± 0.013
106 | KNAVAR | 0.309 ± 0.028
107 | KNAVAT | 0.237 ± 0.018
108 | KNAVAP | 0.214 ± 0.025
109 | KIAVHR | 0.0998 ± 0.0092
110 | KIAVHP | 0.0894 ± 0.011
111 | KIAVHT | 0.0797 ± 0.0069
112 | DIAVER | 0.0484 ± 0.0041
113 | DIAVEP | 0.04514 ± 0.00039

Row | Variant | sfGFP reporter fluorescence
114 | DIAVET | 0.0437 ± 0.002
115 | DNAVER | 0.062 ± 0.0046
116 | DNAVET | 0.0603 ± 0.0036
117 | KIATAR | 0.0681 ± 0.0007
118 | KIATAT | 0.0697 ± 0.0016
119 | KIATAP | 0.0679 ± 0.006
120 | KNITER | 0.926 ± 0.12
121 | KNITET | 0.944 ± 0.15
122 | KIIVEP | 0.0556 ± 0.0028
123 | KIIVET | 0.0557 ± 0.0014
124 | DFAVAT | 0.0449 ± 0.0022
125 | DFAVAR | 0.0492 ± 0.0035
126 | DFAVAP | 0.0484 ± 0.0012
127 | DIITAT | 0.0426 ± 0.0034
128 | DIITAR | 0.0465 ± 0.0022
129 | DIATET | 0.0452 ± 0.0012
130 | DIATER | 0.0413 ± 0.00067
131 | DIATEP | 0.0456 ± 0.0029
132 | DNIKHP | 0.281 ± 0.018
133 | DIAVHT | 0.0483 ± 0.0036
134 | DIAVHR | 0.0493 ± 0.0043
135 | KIIKAT | 0.0483 ± 0.0033
